Positions count from the first letter of the chain named. In names and notes the source's numbering stands.
Tests used:
Format in all cases: biochemical, B. amyloliquefaciens
[1] = substrate: C[C@H](NC(=O)CCC(=O)O)C(=O)N[C@@H](C)C(=O)N1CCC[C@H]1C(=O)N[C@@H](Cc1ccccc1)C(=O)Nc1ccc([N+](=O)[O-])cc1; assay: Kinetics of p-nitroanilide substrate hydrolysis, deletion mutant; details: other: Table V; substrate not given; Km in M
From the text: The effect of deletion of residues 161 through 164 has been shown by comparing the activity of the wild type (WT) enzyme with a mutant enzyme containing this deletion as well as multiple substitutions (i.e., S153/S156/A158/G159/S160/0161-164/1165/S166/A169/R170). This produced the following results:
(§1) Wild-type subtilisin was purified from B. subtilis culture supernatants expressing the B. amyloliquefaciens subtilisin gene (Wells, J.A., et al. (1983) Nucleic Acids Res. 11, 7911-7925) as previously described (Estell, D.A., et al. (1985) J. Biol. Chem. 260, 6518-6521). Details of the synthesis of tetrapeptide substrates having the form succinyl-L-AlaL-AlaL-ProL-[X]-p-nitroanilide (where X is the P1 amino acid) are described by DelMar, E.G., et al. (1979) Anal. Biochem. 99, 316-320. Kinetic parameters, Km(M) and kcat-(s-^1) were measured using a modified progress curve analysis (Estell, D.A., et al. (1985) J. Biol. Chem. 260, 6518-6521). Briefly, plots of rate versus product concentration were fit to the differential form of the rate equation using a non-linear regression algorithm. Errors in kcat and Km for all values reported are less than five percent. The various substrates in Table VIII are ranged in order of decreasing hydrophobicity. Nozaki, Y. (1971), J. Biol. Chem. 246, 2211-2217; Tanford C. (1978) Science 200, 1012).

[2] = substrate: C[C@H](NC(=O)CCC(=O)O)C(=O)N[C@@H](C)C(=O)N1CCC[C@H]1C(=O)N[C@@H](Cc1ccccc1)C(=O)Nc1ccc([N+](=O)[O-])cc1; assay: Kinetics of hydrolysis of succinyl-Ala-Ala-Pro-X-p-nitroanilide substrates (progress curve analysis); details: other: Table V; substrate not given; Km in M
From the text: (§2) A change in substrate specificity is defined as a difference between the kcat/Km ratio of the precursor carbonyl hydrolase and that of the hydrolase mutant. The kcat/Km ratio is a measure of catalytic efficienty. Carbonyl hydrolase mutants with increased or diminished kcat/Km ratios are described in the examples. Generally, the objective will be to secure a mutant having a greater (numerically large) kcat/Km ratio for a given substrate, thereby enabling the use of the enzyme to more efficiently act on a target substrate. A substantial change in kcat/Km ratio is preferably at least 2-fold increase or decrease. However, smaller increases or decreases in the ratio (e.g., at least 1.5-fold) are also considered substantial. An increase in kcat/Km ratio for one substrate may be accompanied by a reduction in kcat/Km ratio for another substrate. […] Km and kcat are measured in accord with known procedures, as described in EPO Publication No. 0130756 or as described herein.
as §1

[3] = substrate: C[C@H](NC(=O)CCC(=O)O)C(=O)N[C@@H](C)C(=O)N1CCC[C@H]1C(=O)N[C@@H](CO)C(=O)Nc1ccc([N+](=O)[O-])cc1; assay: as above; details: other: Table VIII; substrate succinyl-L-AlaL-AlaL-ProL-[X]-p-nitroanilide, X = label (P1 amino acid)
From the text: as §2, §1

[4] = substrate: C[C@H](NC(=O)CCC(=O)O)C(=O)N[C@@H](C)C(=O)N1CCC[C@H]1C(=O)NCC(=O)Nc1ccc([N+](=O)[O-])cc1; assay: as above; details: other: Table VIII; substrate succinyl-L-AlaL-AlaL-ProL-[X]-p-nitroanilide, X = label (P1 amino acid)
From the text: as §2, §1

[5] = substrate: C[C@H](NC(=O)CCC(=O)O)C(=O)N[C@@H](C)C(=O)N1CCC[C@H]1C(=O)N[C@@H](CCC(N)=O)C(=O)Nc1ccc([N+](=O)[O-])cc1; assay: as above; details: other: Table XIV, 156 Glu / 166 Gly(wt); value in parentheses; synthetic substrate with label as P-1 amino acid
From the text: as §2, §1

[6] = substrate: C[C@H](NC(=O)CCC(=O)O)C(=O)N[C@@H](C)C(=O)N1CCC[C@H]1C(=O)N[C@@H](CCC(=O)O)C(=O)Nc1ccc([N+](=O)[O-])cc1; assay: as above
From the text: as §2, §1

[7] = substrate: CSCC[C@H](NC(=O)[C@@H]1CCCN1C(=O)[C@H](C)NC(=O)[C@H](C)NC(=O)CCC(=O)O)C(=O)Nc1ccc([N+](=O)[O-])cc1; assay: as above; details: other: Table XIV, 156 Glu / 166 Gly(wt); value in parentheses; synthetic substrate with label as P-1 amino acid
From the text: as §2, §1

[8] = substrate: C[C@H](NC(=O)CCC(=O)O)C(=O)N[C@@H](C)C(=O)N1CCC[C@H]1C(=O)N[C@@H](Cc1ccc(O)cc1)C(=O)Nc1ccc([N+](=O)[O-])cc1; assay: as above; details: other: Table VIII; substrate succinyl-L-AlaL-AlaL-ProL-[X]-p-nitroanilide, X = label (P1 amino acid)
From the text: as §2, §1

[9] = substrate: C[C@H](NC(=O)CCC(=O)O)C(=O)N[C@@H](C)C(=O)N1CCC[C@H]1C(=O)N[C@@H](Cc1c[nH]cn1)C(=O)Nc1ccc([N+](=O)[O-])cc1; assay: as above; details: other: Table VIII; substrate succinyl-L-AlaL-AlaL-ProL-[X]-p-nitroanilide, X = label (P1 amino acid)
From the text: as §2, §1

[10] = substrate: C[C@H](NC(=O)CCC(=O)O)C(=O)N[C@@H](C)C(=O)N1CCC[C@H]1C(=O)N[C@@H](CCCCN)C(=O)Nc1ccc([N+](=O)[O-])cc1; assay: as above; details: other: Table XIV, 156 Glu / 166 Gly(wt); value in parentheses; synthetic substrate with label as P-1 amino acid
From the text: as §2, §1

[11] = substrate: C[C@H](NC(=O)[C@H](Cc1ccccc1)NC(=O)CCC(=O)O)C(=O)N1CCC[C@H]1C(=O)N[C@@H](Cc1ccccc1)C(=O)Nc1ccc([N+](=O)[O-])cc1; assay: as above; details: other: Table XI, WT
From the text: as §2, §1

[12] = substrate: C[C@H](NC(=O)CCC(=O)O)C(=O)N[C@@H](C)C(=O)N1CCC[C@H]1C(=O)N[C@@H](C)C(=O)Nc1ccc([N+](=O)[O-])cc1; assay: as above
From the text: as §2, §1

[13] = substrate: C[C@H](NC(=O)[C@@H]1CCCN1C(=O)[C@H](C)NC(=O)[C@H](Cc1ccccc1)NC(=O)CCC(=O)O)C(=O)Nc1ccc([N+](=O)[O-])cc1; assay: as above; details: other: Table XI, WT
From the text: as §2, §1

[14] = substrate: CC(C)C[C@H](NC(=O)[C@@H]1CCCN1C(=O)[C@H](C)NC(=O)[C@H](C)NC(=O)CCC(=O)O)C(=O)Nc1ccc([N+](=O)[O-])cc1; assay: as above; details: other: Table VIII; substrate succinyl-L-AlaL-AlaL-ProL-[X]-p-nitroanilide, X = label (P1 amino acid)
From the text: as §2, §1

[15] = substrate: C[C@H](NC(=O)CCC(=O)O)C(=O)N[C@@H](C)C(=O)N1CCC[C@H]1C(=O)N[C@@H](CCC(N)=O)C(=O)Nc1ccc([N+](=O)[O-])cc1; assay: Kinetics of p-nitroanilide substrate hydrolysis, M166; details: other: Table XIV, 156 Glu / 166 Met; value in parentheses; synthetic substrate with label as P-1 amino acid
From the text: as §1
(§3) To probe the change in substrate specificity caused by steric alterations in the S-1 subsite, position 166 mutants were kinetically analyzed versus P1 substrates of increasing size (i.e., Ala, Met, Phe and Tyr). Ratios of kcat/Km are presented in log form in Figure 15 to allow direct comparisons of transition-state binding energies between various enzyme-substrate pairs.
(§4) To isolate the contribution of electrostatics to substrate specificity from other chemical binding forces, these various single and double mutants were analyzed for their ability to bind and cleave synthetic substrates containing Glu, Gln, Met and Lys as the P-1 substrate amino acid. This permitted comparisons between side-chains that were more sterically similar but differed in charge (e.g., Glu versus Gln, Lys versus Met). Similarly, mutant enzymes were assayed against homologous P-1 substrates that were most sterically similar but differed in charge (Table XIV).
(§5) The kcat/Km ratios shown are the second order rate constants for the conversion of substrate to product, and represent the catalytic efficiency of the enzyme. These ratios are presented in logarithmic form to scale the data, and because log kcat/Km is proportional to the lowering of transition-state activation energy (△GT). Mutations at position 156 and 166 produce changes in catalytic efficiency toward Glu, Gln, Met and Lys P-1 substrates of 3100, 60, 200 and 20 fold, respectively.

[16] = substrate: C[C@H](NC(=O)CCC(=O)O)C(=O)N[C@@H](C)C(=O)N1CCC[C@H]1C(=O)N[C@@H](CCC(=O)O)C(=O)Nc1ccc([N+](=O)[O-])cc1; assay: as above; details: other: Table XIV, 156 Glu / 166 Met; value in parentheses; synthetic substrate with label as P-1 amino acid
From the text: as §1, §3, §4, §5

[17] = substrate: CSCC[C@H](NC(=O)[C@@H]1CCCN1C(=O)[C@H](C)NC(=O)[C@H](C)NC(=O)CCC(=O)O)C(=O)Nc1ccc([N+](=O)[O-])cc1; assay: as above; details: other: Table XIV, 156 Glu / 166 Met; value in parentheses; synthetic substrate with label as P-1 amino acid
From the text: as §1, §3, §4, §5

[18] = substrate: C[C@H](NC(=O)CCC(=O)O)C(=O)N[C@@H](C)C(=O)N1CCC[C@H]1C(=O)N[C@@H](CCCCN)C(=O)Nc1ccc([N+](=O)[O-])cc1; assay: as above; details: other: Table XIV, 156 Glu / 166 Met; value in parentheses; synthetic substrate with label as P-1 amino acid
From the text: as §1, §3, §4, §5

[19] = other: Table XIII, Glu156/Gly166 (WT), synthetic substrate with label as P-1 residue
[20] = other: Table VIII, substrate succinyl-L-AlaL-AlaL-ProL-[X]-p-nitroanilide, X = label (P1 amino acid)

B1: B. amyloliquefaciens subtilisin deletion mutant S153/S156/A158/G159/S160/Δ161-164/I165/S166/A169/R170 (Bacillus amyloliquefaciens; … (protein)
chain: AQSVPYGVSQIKAPALHSQGYTGSNVKVAVIDSGIDSSHPDLKVAGGASMVPSETNPFQDNNSHGTHVAGTVAALNNSIGVLGVAPSASLYAVKVLGADGSGQYSWIINGIEWAIANNMDVINMSLGGPSGSAALKAAVDKAVASGVVVVAASGNSGAGSISYPARYPSVIAVGAVDSSNQRASFSSVGPELDVMAPGVSIQSTLPGNKYGAYNGTSMASPHVAGAAALILSKHPNWTNTQVRSSLENTTTKLGDSFYYGKGLINVQAAAQ
notes: at various amino acid residues within the mature form of the subtilisin molecule; made in house
Km [1]: 5 µM

B2: B. amyloliquefaciens subtilisin, wild type (WT, Gly166) (Bacillus amyloliquefaciens) (protein)
chain: AQSVPYGVSQIKAPALHSQGYTGSNVKVAVIDSGIDSSHPDLKVAGGASMVPSETNPFQDNNSHGTHVAGTVAALNNSIGVLGVAPSASLYAVKVLGADGSGQYSWIINGIEWAIANNMDVINMSLGGPSGSAALKAAVDKAVASGVVVVAAAGNEGTSGSSSTVGYPGKYPSVIAVGAVDSSNQRASFSSVGPELDVMAPGVSIQSTLPGNKYGAYNGTSMASPHVAGAAALILSKHPNWTNTQVRSSLENTTTKLGDSFYYGKGLINVQAAAQ
notes: at various amino acid residues within the mature form of the subtilisin molecule; made in house; host or cells: Bacillus subtilis (secreted, culture supernatant)
Km [2]: 140 µM
kcat [2]: 50.0 s-^1
kcat/Km [2]: 360000 M⁻¹ s⁻¹
kcat [3]: 2.8 S^-1
kcat/Km [3]: 4,200 s-^1M-1
kcat [4]: 0.003 S^-1
kcat/Km [4]: 21 s-^1M-1
Km [5]: 447 µM
kcat [5]: 3.2 S^-1
kcat/Km [5]: 7,100 s-^1M-1
Km [6, 19]: 34000 µM
kcat [6, 19]: 0.54 s-^1
kcat/Km [6, 19]: 16 M⁻¹ s⁻¹
Km ([6]; other: Table XIV, 156 Glu / 166 Gly(wt), value in parentheses, synthetic substrate with label as P-1 amino acid): 33900 µM
Km [7]: 107 µM
kcat [7]: 13 S^-1
kcat/Km [7]: 120,000 s-^1M-1
kcat [8]: 28 S^-1
kcat/Km [8]: 1,100,000 s-^1M-1
kcat [9]: 7.9 S^-1
kcat/Km [9]: 13,000 s-^1M-1
Km [10]: 741 µM
Km [11]: 180 µM
kcat [11]: 26.0 s-^1
kcat/Km [11]: 150000 M⁻¹ s⁻¹
kcat [12, 20]: 1.9 S^-1
kcat/Km [12, 20]: 11,000 s-^1M-1
Km ([12]; other: Table XI, WT): 230 µM
kcat ([12]; other: Table XI, WT): 3.2 s-^1
kcat/Km ([12]; other: Table XI, WT): 14000 M⁻¹ s⁻¹
Km [13]: 73 µM
kcat [13]: 0.32 s-^1
kcat/Km [13]: 4400 M⁻¹ s⁻¹
kcat [14]: 24 S^-1
kcat/Km [14]: 75,000 s-^1M-1

B3: B. amyloliquefaciens subtilisin variant Glu156/M166 (Gly166 to Met) (Bacillus amyloliquefaciens; G273M) (protein)
chain: B2 chain with G166M
notes: at various amino acid residues within the mature form of the subtilisin molecule; made in house; host or cells: Bacillus subtilis BG2036
Km [15]: 646 µM
Km [16]: 5010 µM
Km [17]: 14.8 µM
Km [18]: 129 µM

Reference: EP0251446B1, “Non-human Carbonyl hydrolase mutants, DNA sequences and vectors encoding same and hosts transformed with said vectors” (GENENCOR INTERNATIONAL, INC., priority 1986, dated 1988)
